Results taken from the Human Domainome abundance scans (Beltran et al. 2025).
± gives the uncertainty stated by the source.

B1: SH3 and PX domain-containing protein 2B, residues 155 to 209; numbered along this chain, A1X283 (parent)
chain: EQYVVVANYQKQESSEISLSVGQVVDIIEKNESGWWFVSTAEEQGWVPATCLEGQ

Variants of: B1
Assay: abundance fitness (aPCA) (normalised: wild type 0, dead -1); higher = more abundant; growth selection in yeast, the domain comes from the species named
Conditions: Homo sapiens

In order of rising abundance fitness:
1. EQYVVVANYQKQESSEISLSVIQVVDIIEKNESGWWFVSTAEEQGWVPATCLEGQ [G22I]  -1.05 ± 0.21
2. EQYVVVANYQKQESSEISLSVGPVVDIIEKNESGWWFVSTAEEQGWVPATCLEGQ [Q23P]  -0.978 ± 0.2
3. EQYVVVANYQKQESSEISLSVVQVVDIIEKNESGWWFVSTAEEQGWVPATCLEGQ [G22V]  -0.945 ± 0.097
4. EQYVVVANYQKQESSEISLSVLQVVDIIEKNESGWWFVSTAEEQGWVPATCLEGQ [G22L]  -0.921 ± 0.11
5. EQYVVVANYQKQESSEISLSVFQVVDIIEKNESGWWFVSTAEEQGWVPATCLEGQ [G22F]  -0.91 ± 0.26
6. EQYVVVANYQKQESSEISLSVWQVVDIIEKNESGWWFVSTAEEQGWVPATCLEGQ [G22W]  -0.834 ± 0.11
7. EQYVVVANYQKQESSEISLSVPQVVDIIEKNESGWWFVSTAEEQGWVPATCLEGQ [G22P]  -0.83 ± 0.15
8. EQYVVVANYQKQESSEISLSVKQVVDIIEKNESGWWFVSTAEEQGWVPATCLEGQ [G22K]  -0.789 ± 0.14
9. EQYVVVANYQKQESSEISLSVGFVVDIIEKNESGWWFVSTAEEQGWVPATCLEGQ [Q23F]  -0.741 ± 0.16
10. EQYVVVANYQKQESSEISLSVEQVVDIIEKNESGWWFVSTAEEQGWVPATCLEGQ [G22E]  -0.673 ± 0.11
11. EQYVVVANYQKQESSEISLSVCQVVDIIEKNESGWWFVSTAEEQGWVPATCLEGQ [G22C]  -0.638 ± 0.097
12. EQYVVVANYQKQESSEISLSVMQVVDIIEKNESGWWFVSTAEEQGWVPATCLEGQ [G22M]  -0.617 ± 0.11
13. EQYVVVANYQKQESSEISLSVTQVVDIIEKNESGWWFVSTAEEQGWVPATCLEGQ [G22T]  -0.588 ± 0.12
14. EQYVVVANYQKQESSEISLSVHQVVDIIEKNESGWWFVSTAEEQGWVPATCLEGQ [G22H]  -0.581 ± 0.19
15. EQYVVVANYQKQESSEISLSWGQVVDIIEKNESGWWFVSTAEEQGWVPATCLEGQ [V21W]  -0.566 ± 0.13
16. EQYVVVANYQKQESSEISLSVRQVVDIIEKNESGWWFVSTAEEQGWVPATCLEGQ [G22R]  -0.549 ± 0.078
17. EQYVVVANYQKQESSEISLSVQQVVDIIEKNESGWWFVSTAEEQGWVPATCLEGQ [G22Q]  -0.512 ± 0.16
18. EQYVVVANYQKQESSEISLSVSQVVDIIEKNESGWWFVSTAEEQGWVPATCLEGQ [G22S]  -0.503 ± 0.081
19. EQYVVVANYQKQESSEISLSVAQVVDIIEKNESGWWFVSTAEEQGWVPATCLEGQ [G22A]  -0.5 ± 0.078
20. EQYVVVANYQKQESSEISLSVYQVVDIIEKNESGWWFVSTAEEQGWVPATCLEGQ [G22Y]  -0.498 ± 0.19
21. EQYVVVANYQKQESSEISLSGGQVVDIIEKNESGWWFVSTAEEQGWVPATCLEGQ [V21G]  -0.453 ± 0.082
22. EQYVVVANYQKQESSEISLSYGQVVDIIEKNESGWWFVSTAEEQGWVPATCLEGQ [V21Y]  -0.444 ± 0.12
23. EQYVVVANYQKQESSEISLSVGRVVDIIEKNESGWWFVSTAEEQGWVPATCLEGQ [Q23R]  -0.405 ± 0.12
24. EQYVVVANYQKQESSEISLSNGQVVDIIEKNESGWWFVSTAEEQGWVPATCLEGQ [V21N]  -0.342 ± 0.12
25. EQYVVVANYQKQESSEISLSVNQVVDIIEKNESGWWFVSTAEEQGWVPATCLEGQ [G22N]  -0.33 ± 0.16
26. EQYVVVANYQKQESSEISLSPGQVVDIIEKNESGWWFVSTAEEQGWVPATCLEGQ [V21P]  -0.315 ± 0.11
27. EQYVVVANYQKQESSEISLSVGIVVDIIEKNESGWWFVSTAEEQGWVPATCLEGQ [Q23I]  -0.308 ± 0.15
28. EQYVVVANYQKQESSEISLSVGWVVDIIEKNESGWWFVSTAEEQGWVPATCLEGQ [Q23W]  -0.292 ± 0.14
29. EQYVVVANYQKQESSEISLSVGLVVDIIEKNESGWWFVSTAEEQGWVPATCLEGQ [Q23L]  -0.288 ± 0.085
30. EQYVVVANYQKQESSEISLSVGQDVDIIEKNESGWWFVSTAEEQGWVPATCLEGQ [V24D]  -0.277 ± 0.097
31. EQYVVVANYQKQESSEISLSVGGVVDIIEKNESGWWFVSTAEEQGWVPATCLEGQ [Q23G]  -0.263 ± 0.068
32. EQYVVVANYQKQESSEISLSVDQVVDIIEKNESGWWFVSTAEEQGWVPATCLEGQ [G22D]  -0.246 ± 0.14
33. EQYVVVANYQKQESSEISLSSGQVVDIIEKNESGWWFVSTAEEQGWVPATCLEGQ [V21S]  -0.238 ± 0.1
34. EQYVVVANYQKQESSEISLSLGQVVDIIEKNESGWWFVSTAEEQGWVPATCLEGQ [V21L]  -0.188 ± 0.086
35. EQYVVVANYQKQESSEISLSIGQVVDIIEKNESGWWFVSTAEEQGWVPATCLEGQ [V21I]  -0.166 ± 0.12
36. EQYVVVANYQKQESSEISLSVGHVVDIIEKNESGWWFVSTAEEQGWVPATCLEGQ [Q23H]  -0.136 ± 0.13
37. EQYVVVANYQKQESSEISLSVGTVVDIIEKNESGWWFVSTAEEQGWVPATCLEGQ [Q23T]  -0.085 ± 0.12
38. EQYVVVANYQKQESSEISLSMGQVVDIIEKNESGWWFVSTAEEQGWVPATCLEGQ [V21M]  -0.066 ± 0.094
39. EQYVVVANYQKQESSEISLSTGQVVDIIEKNESGWWFVSTAEEQGWVPATCLEGQ [V21T]  -0.061 ± 0.14
40. EQYVVVANYQKQESSEISLSVGMVVDIIEKNESGWWFVSTAEEQGWVPATCLEGQ [Q23M]  -0.039 ± 0.12
41. EQYVVVANYQKQESSEISLSVGNVVDIIEKNESGWWFVSTAEEQGWVPATCLEGQ [Q23N]  -0.037 ± 0.18
42. EQYVVVANYQKQESSEISLSQGQVVDIIEKNESGWWFVSTAEEQGWVPATCLEGQ [V21Q]  -0.036 ± 0.11
43. EQYVVVANYQKQESSEISLSVGQCVDIIEKNESGWWFVSTAEEQGWVPATCLEGQ [V24C]  -0.035 ± 0.13
44. EQYVVVANYQKQESSEISLSVGDVVDIIEKNESGWWFVSTAEEQGWVPATCLEGQ [Q23D]  -0.034 ± 0.087
45. EQYVVVANYQKQESSEISLSVGQAVDIIEKNESGWWFVSTAEEQGWVPATCLEGQ [V24A]  -0.008 ± 0.072
46. EQYVVVANYQKQESSEISLSRGQVVDIIEKNESGWWFVSTAEEQGWVPATCLEGQ [V21R]  -0.005 ± 0.071
47. EQYVVVANYQKQESSEISLSVGEVVDIIEKNESGWWFVSTAEEQGWVPATCLEGQ [Q23E]  0.001 ± 0.09
48. EQYVVVANYQKQESSEISLSKGQVVDIIEKNESGWWFVSTAEEQGWVPATCLEGQ [V21K]  0.092 ± 0.2
